# According to EP1759709B1 (Elan Pharmaceuticals Inc., dated 2013):
# B1: reshaped human 21.6 antibody (La + Ha) (antibody, V domains shown)
# VH: QVQLVQSGAEVKKPGASVKVSCKASGFNIKDTYIHWVRQAPGQRLEWMGRIDPANGYTKYDPKFQGRVTITADTSASTAYMELSSLRSEDTAVYYCAREGYYGNYGVYAMDYWGQGTLVTVSS
# VL: DIQMTQSPSSLSASVGDRVTITCKTSQDINKYMAWYQQTPGKAPRLLIHYTSALQPGIPSRFSGSGSGRDYTFTISSLQPEDIATYYCLQYDNLWTFGQGTKVEIK
# notes: Expressed in Cos cells
# B2: reshaped human 21.6 antibody (Lb + Ha) (antibody, V domains shown)
# VH: QVQLVQSGAEVKKPGASVKVSCKASGFNIKDTYIHWVRQAPGQRLEWMGRIDPANGYTKYDPKFQGRVTITADTSASTAYMELSSLRSEDTAVYYCAREGYYGNYGVYAMDYWGQGTLVTVSS
# VL: DIQMTQSPSSLSASVGDRVTITCKTSQDINKYMAWYQQTPGKAPRLLIYYTSALQPGIPSRFSGSGSGRDYTFTISSLQPEDIATYYCLQYDNLWTFGQGTKVEIK
# notes: Human kappa / human gamma-1 constant regions; tested as crude Cos supernatant; Lb is therefore built here from La with the stated change; also called version Lb in combination with version Ha
# Biological target: T1, human α4β1 integrin (human, UniProt P13612 34-1032; P05556 21-798)
# T1 construct: whole, on cells; also called VLA-4; alpha-4-beta-1 integrin
# Experiment: ELISA on L cells expressing α4β1 integrin; crude supernatants
row,Binder,binding result
1,B1,binds
2,B2,binds
